Results on 39 variants are retold here after the RNAGym collection of RNA variant scans (doi:10.7554/elife.80360).

B1: CPEB3 Ribozyme (parent)
chain: GGGGGCCACAGCAGAAGCGUUCACGUCGCGGCCCCUGUCAGAUUCUGGUGAAUCUGCGAAUUCUGCUGU

Variants of B1 are the subject of this data set. In words: self-cleavage, relative activity (ratio to wild type); higher = more cleavage; co-transcriptional.
GGGGGCCACAGCAGAAGCGUUCACGUCGCGGCCUCUGUCAGAUUCUGGUGAAUCUGCGAUUUCUGCUGU: the self-cleavage turned out to be 0.452.

Turning to GGGGGCCACAGCAGAAGCGUUCACGUCGCGGCCUCUGUCAGAUUCUGGUGAAUCUGCGAGUUCUGCUGU, the self-cleavage stood at 0.789.

Consider GGGGGCCACAGCAGAAGCGUUCACGUCGCGGCCUCUGUCAGAUUCUGGUGAAUCUGCGACUUCUGCUGU, for which the self-cleavage is 0.371.

Take GGGGGCCACAGCAGAAGCGUUCACGUCGCGGCCGCUGUCAGAUUCUGGUGAAUCUGCGAAUUCUGGUGU: the self-cleavage was determined as 0.434.

For the variant GGGGGCCACAGCAGAAGCGUUCACGUCGCGGCCGCUAUCAGAUUCUGGUGAAUCUGCGAAUUCUGCUGU, the self-cleavage was determined as 0.24.

GGGGGCCACAGCAGAAGCGUUCACGUCGCGGCCGCUUUCAGAUUCUGGUGAAUCUGCGAAUUCUGCUGU: the self-cleavage is 0.171.

For the variant GGGGGCCACAGCAGAAGCGUUCACGUCGCGGCCGCUGACAGAUUCUGGUGAAUCUGCGAAUUCUGCUGU, the self-cleavage was 0.733.

Consider GGGGGCCACAGCAGAAGCGUUCACGUCGCGGCCUCUGUCAGAUUCUGGUGAAUCUGCGAAUUCUGCUGU, for which the self-cleavage stood at 0.991.

Take GGGGGCCACAGCAGAAGCGUUCACGUCGCGGCCGCUGUCAGAUUCUGGUGAAUCUGCGAAUUCUGCUCU: the self-cleavage is 0.842.

Turning to GGGGGCCACAGCAGAAGCGUUCACGUCGCGGCCGCUGUCAGAUUCUGGUGAAUCUGCGAAUUCUGCUUU, the self-cleavage turned out to be 0.929.

With GGGGGCCACAGCAGAAGCGUUCACGUCGCGGCCGCUGUCAGAUUCUGGUGAAUCUGCGAAUUCCGCUGU, the self-cleavage was 0.402.

With GGGGGCCACAGCAGAAGCGUUCACGUCGCGGCCGCUGUCAGAUUCUGGUGAAUCUGCGAAUUCGGCUGU, the self-cleavage stood at 0.35.

Take GGGGGCCACAGCAGAAGCGUUCACGUCGCGGCCGCUGUCAGAUUCUGGUGAAUCUGCGAAUUCAGCUGU: the self-cleavage worked out at 0.384.

As for GGGGGCCACAGCAGAAGCGUUCACGUCGCGGCCUCUGUCAGCUUCUGGUGAAUCUGCGAAUUCUGCUGU, the self-cleavage worked out at 0.843.

GGGGGCCACAGCAGAAGCGUUCACGUCGCGGCCUCUGUCAGUUUCUGGUGAAUCUGCGAAUUCUGCUGU: the self-cleavage turned out to be 0.924.

Regarding GGGGGCCACAGCAGAAGCGUUCACGUCGCGGCCUCUGUCAGGUUCUGGUGAAUCUGCGAAUUCUGCUGU, the self-cleavage amounted to 0.932.

In the case of GGGGGCCACAGCAGAAGCGUUCACGUCGCGGCCUCUGUCAGAUUCUGGUGAAUCUGCGCAUUCUGCUGU, the self-cleavage stood at 0.661.

For GGGGGCCACAGCAGAAGCGUUCACGUCGCGGCCUCUGUCAGAUUCUGGUGAAUCUGCGGAUUCUGCUGU, the self-cleavage amounted to 0.899.

Consider GGGGGCCACAGCAGAAGCGUUCACGUCGCGGCCGCUGUCAGAUUCUGGAGAAUCUGCGAAUUCUGCUGU, for which the self-cleavage is 0.784.

As to GGGGGCCACAGCAGAAGCGUUCACGUCGCGGCCGCUGUCAGAUUCUGGCGAAUCUGCGAAUUCUGCUGU, the self-cleavage came out at 0.689.

Regarding GGGGGCCACAGCAGAAGCGUUCACGUCGCGGCCGCUGUCAGAUUCUGGGGAAUCUGCGAAUUCUGCUGU, the self-cleavage came to 0.64.

With GGGGGCCACAGCAGAAGCGUUCACGUCGCGGCCUCUGUCAGAUUGUGGUGAAUCUGCGAAUUCUGCUGU, the self-cleavage was 0.992.

Consider GGGGGCCACAGCAGAAGCGUUCACGUCGCGGCCUCUGUCAGAUUUUGGUGAAUCUGCGAAUUCUGCUGU, for which the self-cleavage was determined as 1.03.

With GGGGGCCACAGCAGAAGCGUUCACGUCGCGGCCGCUGUCAGAGUCUGGUGAAUCUGCGAAUUCUGCUGU, the self-cleavage came to 0.383.

On to GGGGGCCACAGCAGAAGCGUUCACGUCGCGGCCGCUGUCAGACUCUGGUGAAUCUGCGAAUUCUGCUGU, for which the self-cleavage was 0.547.

GGGGGCCACAGCAGAAGCGUUCACGUCGCGGCCGCUGUCAUAUUCUGGUGAAUCUGCGAAUUCUGCUGU: the self-cleavage stood at 0.33.

Regarding GGGGGCCACAGCAGAAGCGUUCACGUCGCGGCCGCUGUCACAUUCUGGUGAAUCUGCGAAUUCUGCUGU, the self-cleavage was 0.296.

Take GGGGGCCACAGCAGAAGCGUUCACGUCGCGGCCGCUGUCAAAUUCUGGUGAAUCUGCGAAUUCUGCUGU: the self-cleavage was 0.318.

GGGGGCCACAGCAGAAGCGUUCACGUCGCGGCCGCUGUCAGAUUCUGGUUAAUCUGCGAAUUCUGCUGU: the self-cleavage was 0.839.

As for GGGGGCCACAGCAGAAGCGUUCACGUCGCGGCCGCUGUCAGAUUCUGGUCAAUCUGCGAAUUCUGCUGU, the self-cleavage came to 0.64.

In the case of GGGGGCCACAGCAGAAGCGUUCACGUCGCGGCCUCUGUCAGAUUCUGGUGAAUCUGCGAAUUGUGCUGU, the self-cleavage was 0.78.

On to GGGGGCCACAGCAGAAGCGUUCACGUCGCGGCCUCUGUAAGAUUCUGGUGAAUCUGCGAAUUCUGCUGU, for which the self-cleavage stood at 0.834.

In the case of GGGGGCCACAGCAGAAGCGUUCACGUCGCGGCCUCUGUGAGAUUCUGGUGAAUCUGCGAAUUCUGCUGU, the self-cleavage was determined as 0.973.

As to GGGGGCCACAGCAGAAGCGUUCACGUCGCGGCCUCUGUUAGAUUCUGGUGAAUCUGCGAAUUCUGCUGU, the self-cleavage came out at 0.943.

On to GGGGGCCACAGCAGAAGCGUUCACGUCGCGGCCUCUGUCAGAUUCUGGUGUAUCUGCGAAUUCUGCUGU, for which the self-cleavage is 0.957.

Regarding GGGGGCCACAGCAGAAGCGUUCACGUCGCGGCCUCUGUCAGAUUCUGGUGCAUCUGCGAAUUCUGCUGU, the self-cleavage was found to be 0.985.

For GGGGGCCACAGCAGAAGCGUUCACGUCGCGGCCUCUGUCAGAUUCUGGUGGAUCUGCGAAUUCUGCUGU, the self-cleavage came out at 1.01.

As to GGGGGCCACAGCAGAAGCGUUCACGUCGCGGCCUCUGUCAGAUUCUGGUGAAUCUGCGAAUUCUGAUGU, the self-cleavage amounted to 0.973.

On to GGGGGCCACAGCAGAAGCGUUCACGUCGCGGCCUCUGUCAGAUUCUGGUGAAUCUGCGAAUUCUGUUGU, for which the self-cleavage came out at 0.977.
